The results in this text go back to patent US20040081659.

The subject of data set [1] is des-Acetylvinblastine-4-O-(N-Acetyl-4-trans-L-Hyp-Ser-Ser-Chg-Gln-Ser-Ser-Pro) ester.
For data set [2], the system named is Ac-AbuSSChgQ-S(dS)-(4-O-P)-dAc-VIN.
The subject of data set [3] is 4-O-(Ac-4-trans-L-HypSSChgQSS-Sar)-(dAc)-VIN.
For data set [4], the system named is 4-O-((2-OH)Ac-Abu-SSChgQ-S-P)-dAc-VIN.
The subject of data set [5] is 4-O-(Ac-SSChgQ-SS-4-trans-L-Hyp)-dAc-VIN.
The test system of data set [6] is 4-O-(Ac-4-trans-L-HypSSChgQSL-lactyl)-(dAc)-VIN.
For data set [7], the system named is Ac-AbuSSChgQ-SS-(4-O-P)-dAc-VIN.
Data set [8] has as its system 4-O-(Ac-SSChgQ-SS-P)-dAc-VIN.
For data set [9], the system named is 4-O-(Ac-4-trans-L-HypSSChgQ-SS-4-trans-L-Hyp)-dAc-VIN.
In data set [10] the test system is 4-O-(Ac-SSChgQS-Gly)-(dAc)-VIN.
For data set [11], the system named is 4-O-(Ac-4-trans-L-HypSSChgQS-Glycine)-(dAc)-VIN.
Data set [12] has as its system Ac-4-trans-L-HypSSChgQSS-(4-O-Sar)-(dAc)-VIN.
Data set [13] deals with Ac-4-trans-L-HypSSChgQ-SChg-(4-O-lactyl)-dAc-VIN.
Data set [14] relates to (4-O)-Ac-(4-trans-L-Hyp)SSChgQ-SL-(dAc)-VIN.
Data set [15] has as its system Ac-4-trans-L-HypSSChgQSChg-(4-O-glycolyl)-VIN.
Data set [16] relates to 4-O-(Ac-Abu-SSChgQ-SP)-dAc-VIN.
The subject of data set [17] is Ac-4-trans-L-HypSSChgQS-(4-O-Ala)-(dAc)-VIN.
The test system of data set [18] is 4-O-(Ac-4-trans-L-HypSSChgQSV-glycolyl)-VIN.

Regarding free prostate specific antigen (PSA), the Time to 50% Substrate Cleavage by York PSA in data set [1] is 17 min; in data set [2], 60 min; in [3], 32 min; in data set [4], 110 min; in [5] it was 22 min; in data set [6], 10 min. The Time to 50% Substrate Cleavage by York PSA was 7 min in data set [7]; 15 min in data set [8]; 13 min in data set [9]; 55 min in data set [10]; 30 min in data set [11]; 15 min in data set [12]. Besides, the Time to 50% Substrate Cleavage by York PSA in [13] was 14 min; in data set [14], 35 min; in data set [15], 12 min; in data set [16], 80 min; in data set [18], 8 min. The “Time to 50% Substrate Cleavage by York PSA (Min)” value in data set [17] is given as 23 (prod converts to 4-O-A-dAc-VIN).
